Key:
[1] = molecular target: protocadherin-15 EC1+2 I22A, His-tagged (mouse) (UniProt Q99PJ1); assay: thermal scanning (thermal stability shift assay with SYPRO orange); pcdh15 fixed at 0.1 mg/mL (~4 μM), cdh23 0.1 to 0.5 mg/mL (~4 to 20 μM; cdh23:pcdh15 1:1 to 5:1); SEC buffer (20 mM Tris-HCl pH 7.5, 150 mM KCl, 50 mM NaCl, 2 mM CaCl2); 10 to 95°C in 0.2°C steps, 5 s equilibration; read-out: shift of the Tm of pcdh15 (ΔTm)
pcdh15 (Mus musculus) = pcdh15 (Mus musculus) (UniProt Q99PJ1); assay: ITC; conditions: cited from earlier work

ΔTm of pcdh15 at cdh23:pcdh15 1:1 [1] [°C] | ΔTm of pcdh15 at cdh23:pcdh15 2:1 [1] [°C] | ΔTm of pcdh15 at cdh23:pcdh15 3:1 [1] [°C] | ΔTm of pcdh15 at cdh23:pcdh15 4:1 [1] [°C] | ΔTm of pcdh15 at cdh23:pcdh15 5:1 [1] [°C] | Substance | Kd (pcdh15 (Mus musculus)) [nM]
0.5 | 0.7 | 1 | 1.1 | 1 | cadherin-23 EC1+2, wild type, His-tagged (from UniProt Q99PF4 24-228) (domain or fragment) | 
 |  |  |  |  | cdh23 (from UniProt Q99PF4) | 2900

— paper PMC5736220
